Measured values: publication PMC5145273

Molecular target: FabL9, soluble purified Fab
Assay: ELISA

IC50: 260 nM
Substance: GluA4_(flip) ligand-binding domain (LBD), rat (domain or fragment)
